Data taken from US20110300138A1 (published 2011).
Where two headings read alike, the source gives them in different places.

Legend:
[1] = molecular target: human TSH receptor (wild type), expressed on transfected CHO cells (human) (UniProt P16473); assay: cell-based or functional assay
[2] = molecular target: human TSHR (thyroid stimulating hormone receptor) expressed in transfected CHO cells (human) (UniProt P16473); assay: cell-based or functional assay
[3] = molecular target: TSHR260-AP (human); assay: TSHR260-AP bridge ELISA (full length TSHR on wells, TSHR260-AP in solution); IgG 10 µg/mL diluted in assay buffer
[4] = molecular target: TSHR260-AP (human); assay: TSHR260-AP bridge ELISA (full length TSHR on wells, TSHR260-AP in solution); IgG 10 µg/mL diluted in HBD serum
[5] = molecular target: human TSH receptor (full length, wild type) expressed in CHO cells (human) (UniProt P16473); assay: cell-based or functional assay
[6] = molecular target: TSHR260-AP (human); assay: TSHR260-AP bridge ELISA (full length TSHR on wells, TSHR260-AP in solution); IgG 0.01 µg/mL diluted in assay buffer
[7] = molecular target: TSHR260-alkaline phosphatase (TSHR260-AP) (human) (UniProt P05187); assay: TSHR260-AP bridge ELISA, full length TSHR on wells; 0.05 µg/mL, diluted in HBD
[8] = molecular target: TSHR260-alkaline phosphatase (TSHR260-AP) (human) (UniProt P05187); assay: TSHR260-AP bridge ELISA, full length TSHR on wells; 250 µg/mL, diluted in HBD
[9] = molecular target: TSHR260-AP (human); assay: TSHR260-AP bridge ELISA (full length TSHR on wells, TSHR260-AP in solution); IgG 0.05 µg/mL diluted in HBD serum
[10] = molecular target: TSHR260-alkaline phosphatase (TSHR260-AP) (human) (UniProt P05187); assay: TSHR260-AP bridge ELISA, full length TSHR on wells; 10 µg/mL, diluted in HBD
[11] = molecular target: TSHR260-alkaline phosphatase (TSHR260-AP) (human) (UniProt P05187); assay: TSHR260-AP bridge ELISA, full length TSHR on wells; 1 µg/mL, diluted in HBD
[12] = molecular target: human TSH receptor (full length, wild type) expressed in CHO cells (human) (UniProt P16473); assay: cell-based or functional assay; remark: listed apart in the source
[13] = molecular target: TSHR260-alkaline phosphatase (TSHR260-AP) (human) (UniProt P05187); assay: TSHR260-AP bridge ELISA, full length TSHR on wells; 100 µg/mL, diluted in HBD

% Inhibition; pTSH 3 ng/mL + 100 µg/mL 5C9 [1]: 99.2%
Cyclic AMP concentration; 100 µg/mL 5C9 alone [1]: 0.2 pmol/mL
Cyclic AMP concentration; 5C9 IgG 0.01 µg/mL + T11 [1]: 24.1 pmol/mL
Cyclic AMP concentration; 5C9 IgG 0.1 µg/mL + T11 [1]: 20.2 pmol/mL
Cyclic AMP concentration; 5C9 IgG 1 µg/mL + T11 [1]: 19.4 pmol/mL
Cyclic AMP concentration; 5C9 IgG 10 µg/mL + T11 [1]: 21.7 pmol/mL
Cyclic AMP concentration; 5C9 IgG 100 µg/mL + T11 [1]: 22.4 pmol/mL
Cyclic AMP concentration; 5C9 IgG 100 µg/mL alone [1]: 0.9 pmol/mL
Cyclic AMP concentration; pTSH 3 ng/mL + 0.001 µg/mL 5C9 [1]: 64.1 pmol/mL
Cyclic AMP concentration; pTSH 3 ng/mL + 0.01 µg/mL 5C9 [1]: 64.6 pmol/mL
Cyclic AMP concentration; pTSH 3 ng/mL + 0.1 µg/mL 5C9 [1]: 13.7 pmol/mL
Cyclic AMP concentration; pTSH 3 ng/mL + 1 µg/mL 5C9 [1]: 4.2 pmol/mL
Cyclic AMP concentration; pTSH 3 ng/mL + 10 µg/mL 5C9 [1]: 1.3 pmol/mL
Cyclic AMP concentration; pTSH 3 ng/mL + 100 µg/mL 5C9 [1]: 0.5 pmol/mL
Cyclic AMP production (constitutive activity); 0.1 µg/mL 5C9 IgG [1]: 68.2 pmol/mL
Cyclic AMP production (constitutive activity); 0.2 µg/mL 5C9 IgG [1]: 58.8 pmol/mL
Cyclic AMP production (constitutive activity); 1 µg/mL 5C9 IgG [1]: 31.4 pmol/mL
Cyclic AMP production (constitutive activity); 2 µg/mL 5C9 IgG [1]: 31.8 pmol/mL
% Inhibition; 3 ng/mL M22 IgG + 0.001 µg/mL 5C9 IgG [2]: 7.7%
% Inhibition; 3 ng/mL M22 IgG + 0.01 µg/mL 5C9 IgG [2]: 25.2%
% Inhibition; 3 ng/mL M22 IgG + 0.1 µg/mL 5C9 IgG [2]: 92.8%
% Inhibition; 3 ng/mL M22 IgG + 1 µg/mL 5C9 IgG [2]: 97.1%
% Inhibition; 3 ng/mL M22 IgG + 10 µg/mL 5C9 IgG [2]: 94.4%
% Inhibition; 3 ng/mL M22 IgG + 100 µg/mL 5C9 IgG [2]: 97.1%
Cyclic AMP concentration; 3 ng/mL M22 IgG + 0.001 µg/mL 5C9 IgG [2]: 41 pmol/mL
Cyclic AMP concentration; 3 ng/mL M22 IgG + 0.01 µg/mL 5C9 IgG [2]: 33.2 pmol/mL
Cyclic AMP concentration; 3 ng/mL M22 IgG + 0.1 µg/mL 5C9 IgG [2]: 3.2 pmol/mL
Cyclic AMP concentration; 3 ng/mL M22 IgG + 1 µg/mL 5C9 IgG [2]: 1.3 pmol/mL
Cyclic AMP concentration; 3 ng/mL M22 IgG + 10 µg/mL 5C9 IgG [2]: 2.5 pmol/mL
Cyclic AMP concentration; 3 ng/mL M22 IgG + 100 µg/mL 5C9 IgG [2]: 1.3 pmol/mL
Cyclic AMP concentration; 100 µg/mL 5C9 IgG [2]: 1.7 pmol/mL
Mean absorbance at 405 nm (absorbance at 405 nm) [3]: 0.099
Mean absorbance at 405 nm (absorbance at 405 nm) [4]: 0.004
% Inhibition; T10 serum + 100 µg/mL 5C9 IgG [5]: 98.4%
% Inhibition; T11 serum + 100 µg/mL 5C9 IgG [5]: 8.5%
% Inhibition; T12 serum + 100 µg/mL 5C9 IgG [5]: 96.3%
Cyclic AMP concentration; 100 µg/mL 5C9 IgG alone [5]: 0.9 pmol/mL
Cyclic AMP concentration; HBD + 100 µg/mL 5C9 IgG [5]: 1.1 pmol/mL
Cyclic AMP concentration; T10 serum + 100 µg/mL 5C9 IgG [5]: 0.9 pmol/mL
Cyclic AMP concentration; T11 serum + 100 µg/mL 5C9 IgG [5]: 37.5 pmol/mL
Cyclic AMP concentration; T12 serum + 100 µg/mL 5C9 IgG [5]: 1.6 pmol/mL
Mean absorbance at 405 nm (absorbance at 405 nm) [6]: -0.001
Mean absorbance at 405 nm (absorbance at 405 nm) [7]: -0.003
Mean absorbance at 405 nm (absorbance at 405 nm) [8]: 0.058
Mean absorbance at 405 nm (absorbance at 405 nm) [9]: -0.003
Mean absorbance at 405 nm (absorbance at 405 nm) [10]: 0.004
Mean absorbance at 405 nm (absorbance at 405 nm) [11]: 0.045
% Inhibition; T4 serum + 100 µg/mL 5C9 IgG [12]: 97.6%
% Inhibition; T5 serum + 100 µg/mL 5C9 IgG [12]: 98.3%
% Inhibition; T6 serum + 100 µg/mL 5C9 IgG [12]: 97.8%
Cyclic AMP concentration; 100 µg/mL 5C9 IgG alone [12]: 1.2 pmol/mL
Cyclic AMP concentration; HBD + 100 µg/mL 5C9 IgG [12]: 1.8 pmol/mL
Cyclic AMP concentration; T4 serum + 100 µg/mL 5C9 IgG [12]: 1.9 pmol/mL
Cyclic AMP concentration; T5 serum + 100 µg/mL 5C9 IgG [12]: 1.1 pmol/mL
Cyclic AMP concentration; T6 serum + 100 µg/mL 5C9 IgG [12]: 1.8 pmol/mL
Mean absorbance at 405 nm (absorbance at 405 nm) [13]: 0.027
B1: 5C9 IgG (antibody, from another filing, V domains shown)
VH: EVQLVESGGGLIQPGGSLRLSCAASGFTVSSNYMSWVRQAPGKGLEWVSVTYSGGSTSYADSVKGRFTISRDNSKNTLYLQMNSLRAEDTAVYYCARGGRYCSSISCYARSGCDYWGQGTLVTVSS
VL: AIQMTQSPSSLSASVGDRVTITCRASQSISNYLNWYQQKPGKAPKLLIYAASSLQSGVPSRFSGSGSGTDFTLTISSLQPEDFATYYCQQSYSSPSTTFGQGTKLEIK
